Reference: patent publication US20050287608A1

Target: ubiquitinated proteins of yeast cells
Test: Flag purification from yeast cells, anti-Ub immunoblot

reduction in the amount of ubiquitinated protein recovered, against Flag-Rad23 [%]	interaction remaining, compared to the wildtype protein [%]	Substance
80		Flag-rad23^uba1 (yeast Rad23 L183A, amino-terminal Flag epitope) (from UniProt P32628 1-398)
	1	Flag-rad23^Δuba1 (yeast Rad23 with residues 141-190 removed, amino-terminal Flag epitope) (from UniProt P32628 1-140; P32628 191-398)
